For this assay, the target named is HCoV-OC43 Nucleocapsid (N) protein (2X-StrepTag tagged) (HCoV-OC43) (UniProt P33469). Description: BLI. Background: Biolayer interferometry detects binding as a change in optical thickness at a sensor tip.
Sequence of HCoV-OC43 Nucleocapsid (N) protein (2X-StrepTag tagged) (HCoV-OC43) (P33469 whole entry): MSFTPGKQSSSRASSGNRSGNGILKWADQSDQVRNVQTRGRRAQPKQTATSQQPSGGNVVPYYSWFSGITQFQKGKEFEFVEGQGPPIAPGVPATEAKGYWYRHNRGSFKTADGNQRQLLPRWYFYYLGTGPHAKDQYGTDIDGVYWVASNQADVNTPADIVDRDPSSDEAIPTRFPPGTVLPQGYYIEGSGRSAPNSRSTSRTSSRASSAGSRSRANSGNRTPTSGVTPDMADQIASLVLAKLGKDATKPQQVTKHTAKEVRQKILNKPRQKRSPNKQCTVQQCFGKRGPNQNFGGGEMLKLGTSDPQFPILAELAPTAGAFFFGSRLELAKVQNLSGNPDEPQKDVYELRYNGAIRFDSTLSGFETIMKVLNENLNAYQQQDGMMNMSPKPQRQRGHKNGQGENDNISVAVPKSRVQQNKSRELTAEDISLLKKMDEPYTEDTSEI

In general, Kd refers to the concentration at which binding is half-saturated. The koff is the first-order rate constant of dissociation. Read a high koff as fast dissociation. By kon is commonly meant the second-order rate constant of association. Consider CXCL4 (ligand), for which the Kd stood at 170 nM, the koff was determined as 0.00088 s⁻¹ and the on-rate (kon) stood at 5300 M⁻¹ s⁻¹.

These data come from publication doi:10.1101/2023.02.24.529952.
